According to patent US20110009597A1, “RECOMBINANT GANODERMA LUCIDIUM IMMUNOMODULATORY PROTEIN (rLZ-8) AND USES THEREOF” (priority 2008, published 2011):

How the values were obtained:
[1] = test system: Human Chronic Myelogenous Leukemia K562 Cells; assay: Lethal effect of rLZ-8 on K562 cells (MTT, OD570nm); format: cell-based; details: As2O3 10 μg ml^−1, 48 h
Description: After sterilization of rLZ-8, we prepared 6 concentrations using IMDM culture medium, which are respectively 3.125 μg·ml^−1, 6.25 μb·ml^−1, 12.5 μg·ml^−, 25 μg·ml^−1, 50 μg·ml^−1, 100 μg·ml^−1.
On 96-orifice culture plate, the pilot aperture plus K562 tumor cells 0.1 ml and rLZ-8 0.1 ml, rLZ-8 concentrations from low to high; negative control group plus K562 tumor cells and culture medium of the 0.1 ml respectively; positive drug control group arsenic trioxide As2O3; make six-aperture multipunches for each group. Placing in 37° C., 5% CO2 incubator 48 h, adding MTT15 μl (5 mg ml^−1) prior to the termination of 4 h, after the termination of cell culture by adding 100 μl 0.1 mol L^−1 hydrochloric acid isopropyl alcohol, testing OD values570nm on the enzyme immunosorbent detector.

NB4 = assay: Annexin V-FITC flow cytometry, apoptosis of NB4; format: cell-based; details: NB4, As2O3 0.5 μg·ml^−1, 24 h, Annexin V/PI
Description: (§1) FACS Calibur flow cytometry, U.S. Becton-Dickinson.Coompany. NB4, HL-60. rLZ-8 is prepared with IMDM culture medium containing 2% FCS into the preparation of 0.1 μg·ml^−1, 0.5 μg·ml^−1, 2.5 μg·ml^−1, arsenic trioxide (As2O3) 0.5 μg·ml^−1 AnnexinV-FITC kit: combining buffer solution 4×; Propidium iodide solution (PI), 20 μg·ml−1, 0.2 ml; recombinant human Annexin V/FITC, 0.1 ml.
(§2) Establish NB4 normal control group, positive drug group (As2O3 0.5 μg·ml^−1), protein low-dose group (0.1 μg·ml^−1), medium-dose group (0.5 μg·ml^−1), high-dose group, (2.5 μg·ml^−1); establish HL-60 normal control group, protein low-dose group (0.1 μg·ml^−1), medium-dose group (0.5 μg·ml^−1), high-dose group, (2.5 μg·ml^−1).
(§3) Mix NB4 and HL-60 cell into 24-orifice plate respectively, 1 ml/hole supply rLZ-8 in different concentrates, set 3-orifice multipunches for each group. Put them in 37° C., 5% CO2 incubator for 24 h, collect the cells of each concentrate, washes the cells twice with pre-cooled PBS 4° C., with 250 μl binding buffer solution re-suspending cells and regulates the cell density to 1×10^6/ml, taking out 100 μl to 5 ml streaming tube, and add 5 μl Annexin V/FITC and 10 μl 20 μg·ml^−1 PI solution, after mixing put it in room temperature and lucifuged hatching 15 min, add 400 μl PBS by flow cytometry analysis.

[2] = test system: Human Promyelocytic Leukemia NB4 Cells; assay: Killing effect of rLZ-8 on NB4 cells (MTT, OD570nm); format: cell-based; details: As2O3 10 μg ml^−1, 48 h
Description: After filtration and degerming, we prepared 8 concentrations using IMDM culture medium which are respectively 0.78 μg·ml^−1, 1.56 μg·ml^−1, 3.125 μg·ml^−1, 6.25 μg·ml^−1, 12.5 μg·ml^−1, 25 μg·ml^−1, 50 μg·ml^−1, 100 μg·ml^−1.
On 96-orifice culture medium plate, the pilot orifice plus NB4 tumor cells 0.1 ml and rLZ-8 0.1 ml, rLZ-8 concentrates from low to high; negative control group plus NB4 tumor cells and culture medium of 0.1 ml respectively; positive drug control group arsenic trioxide As2O3; make six-aperture multipunches for each group. Placing in 37° C., 5% CO2 incubator 48 h, adding MTT15 μl (5 mg ml^−1) prior to the termination of 4 h, after the termination of cell culture by adding 100 μl 0.1 mol L^−1 hydrochloric acid isopropyl alcohol, testing on the enzyme-linked immunosorbent OD570nm values.

HL-60 = assay: Annexin V-FITC flow cytometry, apoptosis of HL-60; format: cell-based; details: HL-60, positive drug group, 24 h, Annexin V/PI
Description: as §1, §2, §3

WBC [3] = assay: Cyclophosphamide low-leucocyte rat model, WBC; format: in vivo, rats; parameters: unit not given here; details: Genlei Scimax 9.45 μg·kg−1
Description: rLZ-8 preparation of sterile saline. Divide them into 20 μg·kg^−1, 10 μg·kg^−1, 5 μg·kg^−1, 2.5 μg·kg^−1, 1.25 μg·kg^−1, 0.625 μg·kg^−1, 0.31 μg·kg^−1 dose groups.
Genlei™ Scimax™ [Recombinant human granulocyte colony-stimulating factor injection (rhG-CSF)], production lot: 20060403; 75 μg/vial is prepared with sterile normal saline into the preparation of 9.45 μg·ml^−1, 0.1 ml/vial.
Cyclophosphamide (CP), the production lot number 050216; 200 mg/vial is prepared with sterile normal saline into the preparation of 20 mg·ml^−1, 0.1 ml/vial, namely, 49 mg·kg^−1.
Normal control group, protein low-dose group, protein medium-dose group, protein high-dose group, positive control group (Genlei™ Scimax™)
(§4) Excluding the normal control group (given same normal saline), each group of rats were given tail vein injection of cyclophosphamide, 20 mg·ml^−1, 0.1 ml/vial, for 3 consecutive days. On 3rd day, rat tail venous blood sampling, sent to Jilin University First Hospital laboratory, cell analyze the number of WBC. After successful modeling, they were given to the above groups respective dose of rLZ-8 and positive drugs (Genlei™ Scimax™) treatment, the normal control group and CP groups were given same normal saline, on the 3rd, 7th and 14th day of the treatment to draw venous blood from rats tail respectively, sent to Jilin University First Hospital testing the numbers of WBC. Compare WBC changes before and after the treatment for analysis of drug efficacy.

spleen = assay: Colony forming unit-spleen and spleen index in radiation model of mice; format: in vivo; details: Genlei Scimax 3.2 μg·kg^−1
Description: (§5) rLZ-8 preparation of sterile saline. Divide them into 5 ∞g·kg^−1, 2.5 μg·kg^−1, 1.25 μg·kg^−1, 0.62 μg·kg^−1 dose groups. 0.2 ml/vial.
(§6) Genlei™ Scimax™ [Recombinant human granulocyte colony-stimulating factor injection (rhG-CSF)], production lot: 20060403; 150m/vial is prepared with sterile normal saline into the preparation of 3.2 μg·kg^−1, 0.2 ml/vial.
(§7) The mice were irradiated by 7.5 Gy γ-ray (180 mV, 15 mA) and then divided into seven groups (n=10): (A) negative control; (B) 5 μg·kg−1 dose; (C) 2.5 μg·kg−1 dose; (D) 1.25 μg·kg−1 dose; (E) 0.62 μg·kg−1 dose; (F) positive control (Genlei™ Scimax™); (G) model group. Together with modeling, mice in each group were administered with Genlei™ Scimax™ and rLZ-8 for 9 days, drew blood from tail, tested the number of WBC, weight spleen, calculated index of spleen.

WBC [4] = assay: Cyclophosphamide low-leucocyte mice model, WBC; format: in vivo; parameters: unit not given here; details: Genlei Scimax 3.2 μg·kg−1
Description: rLZ-8 preparation of sterile saline. Divide them into 5 μg·kg^−1, 2.5 μg√kg^−1, 1.25 μg·kg^−1, 0.62 μg·kg^−1 dose groups.
Genlei™ Scimax™ [Recombinant human granulocyte colony-stimulating factor injection (rhG-CSF)], production lot: 20060403; 75 μg/vial is prepared with sterile normal saline into the preparation of 3.2 μg·kg^−1, 0.2 ml/vial.
Cyclophosphamide (CP) for injection (the production lot number 050216; 200 mg/vial) is prepared with sterile normal saline into the preparation of 12.5 mg·kg^−1, 0.2 ml/vial.
Normal control group, several protein dose groups, positive control group (Genlei™ Scimax™).
as §4, with “mice” for “rats”, “[…], 0.2” for “20 mg·ml^−1, 0.1”

WBC [5] = assay: Treatment of radiation leucopenia model of mice, WBC; format: in vivo; parameters: unit not given here; details: Genlei Scimax 3.2 μg·kg^−1; 7.5 Gy γ-ray
Description: as §5, §6, §7

WBC [6] = assay: Prevention of radiation leucopenia model of mice, WBC; format: in vivo; parameters: unit not given here; details: Genlei Scimax 3.2 μg
Description: rLZ-8 preparation of sterile saline. Divide them into 5 μg·kg^−1, 2.5 μg·kg^−1, 1.25 μg·kg^−1, 0.62 μg·kg^−1 dose groups. 0.2 ml/vial.
Genlei™ Scimax™ [Recombinant human granulocyte colony-stimulating factor injection (rhG-CSF)], production lot: 20060403; 150 μg/vial is prepared with sterile normal saline into the preparation of 3.2 μg·kg^−1, 0.2 ml/vial.
as §7, with “Before modeling 5 days,” for “Together with modeling,”, “5” for “9”, “days, on the 5th day, mice were radiated, for 5 days, and on the 7th day,” for “days,”

With “arsenic trioxide [As2O3, reference compound]” the “Growth inhibition rate (%)” value [1] was 78.2%, the OD570 nm [1] was 0.22 ± 0.03 and the Apoptosis rate (NB4) was 23.4%. For the same molecule, the “Growth inhibition rate (%)” value [2] was 72%, the OD570 nm [2] was 0.33 ± 0.01 and the Apoptosis rate (HL-60) was 39.7%.

B1: Genlei ™ Scimax ™: Recombinant human granulocyte colony-stimulating factor injection (rhG-CSF) (protein, UniProt P09919 31-207, looked up)
Granulocyte …: TPLGPASSLPQSFLLKCLEQVRKIQGDGAALQEKLVSECATYKLCHPEELVLLGHSLGIPWAPLSSCPSQALQLAGCLSQLHSGLFLYQGLLQALEGISPELGPTLDTLQLDVADFATTIWQQMEELGMAPALQPTQGAMPAFASAFQRRAGGVLVASHLQSFLEVSYRVLRHLAQP
In the case of B1, the “WBC, 3rdday of medication” value (WBC [3]) is reported as 1.4 ± 0.11, the “WBC, 7thday of medication” value (WBC [3]) is reported as 13.1 ± 0.21 and the “WBC, 14thday of medication” value (WBC [3]) is reported as 10.3 ± 0.14. The “colony forming unit-spleen number” value (spleen) was 6.0 ± 0.11, the growth rate (spleen) was 26% and the “index (spleen)” value (spleen) was 0.20 ± 0.10. The “WBC, 3rdday of medication” value (WBC [4]) was 5.5 ± 0.12, the “WBC, 7thday of medication” value (WBC [4]) was 22.7 ± 0.12 and the “WBC, 14thday of medication” value (WBC [4]) was 13.0 ± 0.19. For the same molecule, the “WBC, 5th day” value (WBC [5]) was 0.68 ± 0.35, the “WBC, 7th day” value (WBC [5]) was 0.58 ± 0.35 and the “WBC, 9th day” value (WBC [5]) was 0.80 ± 0.11. The “WBC, 5th day (rLZ-8)” value (WBC [6]; 5th day of administration before radiation) was 21.8 ± 0.35, the “WBC, 5th day” value (WBC [6]; after 7.5 Gy γ-ray) was 0.26 ± 0.20 and the “WBC, 7th day” value (WBC [6]; after 7.5 Gy γ-ray) was 0.22 ± 0.12.
